This passage reports IC50 results from publication PMC5993042.

This experiment has as its target estrogen receptor α (as used in the TR-FRET assay) (UniProt P03372). The experiment can be described thus: FRET or BRET.

Chain of estrogen receptor α (as used in the TR-FRET assay) (P03372 311-547): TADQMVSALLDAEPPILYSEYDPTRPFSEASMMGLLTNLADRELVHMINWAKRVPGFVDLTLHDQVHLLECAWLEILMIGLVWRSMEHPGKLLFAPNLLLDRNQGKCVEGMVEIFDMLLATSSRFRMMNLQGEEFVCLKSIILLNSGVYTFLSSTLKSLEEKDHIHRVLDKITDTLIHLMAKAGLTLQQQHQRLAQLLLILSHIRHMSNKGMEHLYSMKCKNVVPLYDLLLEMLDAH

The substance SRC2-WT (peptide) registered an IC50 of 1100 nM.
